Laboratory results as given in patent publication US20220406376A1 (MacroGenics, published 2022).

What was measured:
[1] = molecular target: T1, CD137 on the surface of cells (activated human T cells; engineered CHO cells) (human, UniProt Q07011 24-255); assay: flow cytometry on activated pan T cells gated CD4+ (donor D43867), anti-hFc APC MFI
T1 construct: whole, on cells; also called human CD137; cell surface expressed CD137
Method: (§1) Three antibodies were selected for further study. For such evaluations, purified pan T-cells (see above) were stimulated with anti-CD3/CD28 beads (cells:beads=1:1) for 72 hours in the presence of IL-2 (100 U/mL). 100 μL of activated T cells (1.0×10⁶ cells/mL) and 100 μL of serially diluted (5- or 10-fold dilutions) test article (antibody or bispecific diabody) was added to each well of microtiter assay plate(s), mixed and incubated at RT for 45 min. The cells were washed with FACS Buffer and secondary antibody (anti-human-Fc region-APC) was then added to each well; mixed and incubated at RT for 30 min. Cells were then washed FACS Buffer and T cell surface marker antibodies (anti-CD4 labeled with V510, and anti-CD8 labeled with FITC) were then added to each well; mixed and incubated at RT for 30 min. Cells were washed and resuspended in 100 μL FACS Buffer and analyzed by flow cytometry (BD LSR Fortessa or FACSCanto 11) for cell event collection. Data analysis were performed via FloJo v10.

[2] = molecular target: T1, CD137 on the surface of cells …; assay: flow cytometry on activated pan T cells gated CD8+ (donor D43867), anti-hFc APC MFI
Method: as §1

[3] = molecular target: T2, extracellular portion of human CD137 fused to a histidine-containing peptide (human, UniProt Q07011 24-186); assay: SPR (BIACORE), against chCD137 MAB-4
T2 construct: extracellular domain; also called huCD137; His-tagged soluble human CD137
Method: (§2) Thus, an extracellular portion of human CD137 fused to a histidine-containing peptide (“huCD137”) was passed over a surface coated with immobilized antibody. Briefly, each test molecule was captured onto an F(ab)₂ goat-anti-human Fc-coated surface and then incubated in the presence of different concentrations (25 nM and 100 nM) of huCD137. The kinetics of binding were determined via BIACORE® analysis binding (normalized 1:1 Langmuir binding model).

[4] = molecular target: T2, extracellular portion of human CD137 …; assay: SPR (BIACORE); antibody captured on anti-human Fc; huCD137 25 and 100 nM; 1:1 Langmuir
Method: as §2

[5] = molecular target: T2, extracellular portion of human CD137 …; assay: Attana Cell A200 QCM; antibody captured by anti-human IgG Fc; soluble human CD137-His; grade relative to (1B.3); row with VL12
[6] = molecular target: T2, extracellular portion of human CD137 …; assay: SPR (BIACORE), against chCD137 MAB-3
Method: as §2

[7] = molecular target: T3, extracellular portion of human HER2 fused to a histidine-containing peptide (human, UniProt P04626 23-652); assay: SPR (BIACORE), essentially as for Table 8
T3 construct: extracellular domain; also called huHER2; Human HER2/neu
From the text: The humanized variants were selected to have improved binding affinity as compared to the parental murine antibody and as described may be further engineered to eliminate sequence liabilities (e.g., isomerization, deamidation sites) as described above. The binding affinity of several combinations of humanized VH and VL domains was examined by BIACORE®. Thus, an extracellular portion of human HER2 fused to a histidine-containing peptide (“huHER2”) was passed over a surface coated with immobilized antibody. Briefly, each test molecule was captured onto an F(ab)₂ goat-anti-human Fc-coated surface and then incubated in the presence of different concentrations (6.25 nM-50 nM) of huHER2. The kinetics of binding were determined via BIACORE® analysis binding (normalized 1:1 Langmuir binding model).
In a separate study, the binding kinetics of the CD137×TA bispecific diabody, DART-B (described above), were determined for binding to human HER2 and cynomolgus monkey HER2, essentially as described above.

[8] = molecular target: T4, HER2/neu on the surface of target cells (N87, JIMT-1, MCF-7, MDA-MB231) (UniProt P04626 23-1255, limits assumed); assay: flow cytometry on N87 cells, anti-hFc APC MFI
T4 construct: whole, on cells
Method: (§3) CD137×TA Binding Molecules, DART-B, DART-D, DART-G and the control molecules DART-3 and DART-6 were additionally evaluated for their ability to bind to HER2/neu expressed on N87 cells (FIG. 13A) and JIMT-1 cells (FIG. 13B). For such evaluation, 100 μL of HER2/neu expressing target cells (1.0×1⁰⁶ cells/mL) and 100 μL of serially diluted (5- or 10-fold dilutions) test article (bispecific diabody) were added to each well of microtiter assay plate(s), mixed and incubated at RT for 45 min. The cells were washed with FACS Buffer and secondary antibody (anti-human-Fc region-APC) was then added to each well; mixed and incubated at RT for 30 min. Cells were washed and resuspended in 100 μL FACS Buffer and analyzed by flow cytometry (BD LSR Fortessa or FACSCanto 11) for cell event collection. Data analysis were performed via FloJo v10.

[9] = molecular target: T4, HER2/neu on the surface of target cells …; assay: flow cytometry on JIMT-1 cells, anti-hFc APC MFI
Method: as §3

[10] = molecular target: T4, HER2/neu on the surface of target cells …; assay: flow cytometry on N87 gastric cancer cells, anti-hFc APC MFI
[11] = molecular target: T1, CD137 on the surface of cells …; assay: flow cytometry on activated pan T cells gated CD8, anti-hFc APC MFI
[12] = molecular target: T1, CD137 on the surface of cells …; assay: flow cytometry on activated CD8+ T cells (CD8 FITC), anti-hFc APC MFI
[13] = molecular target: T1, CD137 on the surface of cells …; assay: flow cytometry on CD137-expressing CHO cells (CHO/137), anti-hFc APC MFI

T1 sequence (Q07011 24-255, change not shown): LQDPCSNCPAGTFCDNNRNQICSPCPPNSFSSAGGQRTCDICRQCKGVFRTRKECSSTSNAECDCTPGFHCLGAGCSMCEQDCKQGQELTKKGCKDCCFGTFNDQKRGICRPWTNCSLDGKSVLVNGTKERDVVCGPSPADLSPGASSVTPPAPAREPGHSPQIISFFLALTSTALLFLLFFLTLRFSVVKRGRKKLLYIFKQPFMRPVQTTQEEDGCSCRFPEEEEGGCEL

B1: hCD137 MAB-3 (1E.15) (antibody, V domains shown)
VH: QVQLVQSGAEVKKPGASVKVSCKASGYTFTSYWINWVRQAPGQGLEWIGNIYPSDSYTNYNQKFKDKATITADKSTSTAYMELSSLRSEDTAVYYCTRDYGSAYSMSTWGQGTTVTVSS
VL: DIQMTQSPSSLSASVGDRVTITCQASQDISNYLNWYQQKPDKTVKLLIYYTGRARSGVPSRFSGSGSGTDFTFTISSLQPEDIATYFCQQGDTLPYTFGQGTKLEIK
- EC50 (read off the curve) [1]: ~0.006 µg/mL
- EC50 (read off the curve) [2]: ~0.005 µg/mL

B2: hCD137 MAB-4 (1.1) (antibody, V domains shown)
VH: QVQLVQSGAEVKKPGASVKVSCKASGYTFTSYWINWVRQAPGQGLEWMGNIYPSDSYTNYDQKFKDRVTMTRDTSTSTVYMELSSLRSEDTAVYYCTKSGEYGKIGYYAMDYWGQGTTVTVSS
VL: DIQMTQSPSSLSASVGDRVTITCRASQDISNYLNWYQQKPDKTVKLLIYYTSRLHSGVPSRFSGSGSGTDYTLTISSLQPEDIATYFCQQGNTLPYTFGQGTKLEIK
notes: also called chCD137 MAB-4 (1.1)
- fold decrease in binding affinity relative to the murine antibodies [3]: ~2 fold
- Kd [4]: 16.2 nM
- koff [4]: 0.0021 s⁻¹
- kon [4]: 130000 M⁻¹ s⁻¹

B3: hCD137 MAB-3 VH1B with VL12 (I48A/S52T) (antibody, V domains shown)
VH: QVQLVQSGAEVKKPGASVKVSCKASGYTFTSYWINWVKQAPGQGLEWIGNIYPSDSYTNYNQKFKDKATITADKSTSTAYMELSSLRSEDTAVYYCTRDYGSAYSMSTWGQGTTVTVSS
VL: DIQMTQSPSSLSASVGDRVTITCRPSQDISNYLNWYQQKPDKTVKLLAYYTTRLRSGVPSRFSGSGSGTDFTFTISSLQPEDIATYFCQQGDTLPYTFGQGTKLEIK
- binding result [5]: binds

B4: hCD137 MAB-3 (1G.15) (antibody, V domains shown)
VH: QVQLVQSGAEVKKPGASVKVSCKASGYTFTSYWINWVRQAPGQGLEWAGNIYPSDSYTNYNQKFKDKATITADKSTSTAYMELSSLRSEDTAVYYCTRDYGSAYSMSTWGQGTTVTVSS
VL: DIQMTQSPSSLSASVGDRVTITCQASQDISNYLNWYQQKPDKTVKLLIYYTGRARSGVPSRFSGSGSGTDFTFTISSLQPEDIATYFCQQGDTLPYTFGQGTKLEIK
- EC50 (read off the curve) [1]: ~0.01 µg/mL
- EC50 (read off the curve) [2]: ~0.008 µg/mL

B5: hCD137 MAB-3 (1.3) (antibody, V domains shown)
VH: QVQLVQSGAEVKKPGASVKVSCKASGYTFTSYWINWVKQAPGQGLEWIGNIYPSDSYTNYNQKFKDKATITADKSTSTAYMELSSLRSEDTAVYYCTRDYGSSYSFDYWGQGTTVTVSS
VL: DIQMTQSPSSLSASVGDRVTITCRPSQDISNYLNWYQQKPDKTVKLLIYYTSRLRSGVPSRFSGSGSGTDFTFTISSLQPEDIATYFCQQGDTLPYTFGQGTKLEIK
notes: also called chCD137 MAB-3 (1.3)
- fold decrease in binding affinity relative to the murine antibodies [6]: ~2 fold
- Kd [4]: 50 nM
- koff [4]: 0.033 s⁻¹
- kon [4]: 660000 M⁻¹ s⁻¹

B6: hCD137 MAB-4 (1.2) (antibody, V domains shown)
VH: QVQLVQSGAEVKKPGASVKVSCKASGYTFTSYWINWVRQAPGQGLEWMGNIYPSDSYTNYDQKFKDRVTMTRDTSTSTVYMELSSLRSEDTAVYYCTKSGEYGKIGYYAMDYWGQGTTVTVSS
VL: DIQMTQSPSSLSASVGDRVTITCRASQDISNYLNWYQQKPDKTVKLLIYYTSRLHSGVPSRFSGSGSGTDYTLTISSLQPEDIATYYCQQGNTLPYTFGQGTKLEIK
notes: also called chCD137 MAB-4 (1.2)
- fold decrease in binding affinity relative to the murine antibodies [3]: ~2 fold
- Kd [4]: 13.6 nM
- koff [4]: 0.0019 s⁻¹
- kon [4]: 140000 M⁻¹ s⁻¹

B7: hCD137 MAB-3 (1.2) (antibody, V domains shown)
VH: QVQLVQSGAEVKKPGASVKVSCKASGYTFTSYWINWVKQAPGQGLEWIGNIYPSDSYTNYNQKFKDKATITADKSTSTAYMELSSLRSEDTAVYYCTRDYGSSYSFDYWGQGTTVTVSS
VL: DIQMTQSPSSLSASVGDRVTITCRPSQDISNYLNWYQQKPGGTVKLLIYYTSRLRSGVPSRFSGSGSGTDFTFTISSLQPEDIATYFCQQGDTLPYTFGQGTKLEIK
notes: also called chCD137 MAB-3 (1.2)
- fold decrease in binding affinity relative to the murine antibodies [6]: ~2 fold
- Kd [4]: 49 nM
- koff [4]: 0.03 s⁻¹
- kon [4]: 610000 M⁻¹ s⁻¹

B8: hCD137 MAB-3 (1.1) (antibody, V domains shown)
VH: QVQLVQSGAEVKKPGASVKVSCKASGYTFTSYWINWVKQAPGQGLEWIGNIYPSDSYTNYNQKFKDKATITADKSTSTAYMELSSLRSEDTAVYYCTRDYGSSYSFDYWGQGTTVTVSS
VL: DIQMTQSPSSLSASVGDRVTITCRPSQDISNYLNWYQQKPDGTVKLLIYYTSRLRSGVPSRFSGSGSGTDFTFTISSLQPEDIATYFCQQGDTLPYTFGQGTKLEIK
notes: also called chCD137 MAB-3 (1.1)
- fold decrease in binding affinity relative to the murine antibodies [6]: ~2 fold
- Kd [4]: 46 nM
- koff [4]: 0.031 s⁻¹
- kon [4]: 670000 M⁻¹ s⁻¹

B9: DART-B (bispecific antibody)
chain 1: not shown
chain 2: DIQMTQSPSSLSASVGDRVTITCRPSQDISNYLNWYQQKPDKTVKLLIYYTSRLRSGVPSRFSGSGSGTDFTFTISSLQPEDIATYFCQQGDTLPYTFGQGTKLEIKGGGSGGGGQVQLVQSGAEVKKPGASVKVSCKASGYTFTNYGMNWVRQAPGQGLEWMGWINTNIGEPTYTEEFKGRVTMTRDTSISTAYMELSRLRSDDTAVYYCARDDGYGNRVSYWGQGTLVTVSSGGCGGGKVAACKEKVAALKEKVAALKEKVAALKE
- Kd [7]: 0.38 nM
- koff [7]: 0.000182 s⁻¹
- kon [7]: 480000 M⁻¹ s⁻¹
- EC50 (read off the curve) [8]: ~0.06 µg/mL
- EC50 (read off the curve) [9]: ~0.03 µg/mL
- EC50 (read off the curve) [10]: ~0.5 nM
- EC50 (read off the curve) [11]: ~0.1 nM
- EC50 (read off the curve) [12]: ~0.02 µg/mL
- EC50 (read off the curve) [13]: ~0.01 µg/mL
